B1: knobΔTAYT protein containing an MA(H)6 tag at the N-terminus (Ad5 fiber knob, TAYT deleted) (domain or fragment, human adenovirus serotype 5, UniProt P11818 387-581, looked up)
chain: GAITVGNKNNDKLTLWTTPAPSPNCRLNAEKDAKLTLVLTKCGSQILATVSVLAVKGSLAPISGTVQSAHLIIRFDENGVLLNNSFLDPEYWNFRNGDLTEGNAVGFMPNLSAYPKSHGKTAKSNIVSQVYLNGDKTKPVTLTITLNGTQETGDTTPSAYSMSFSWDWSGHNYINEIFATSSYTFSYIAQE
B2: knobΔTAYT version with an N-terminal MA(H)6 tag followed by an AviTag (biotinylated) (domain or fragment, human adenovirus serotype 5, UniProt P11818 387-581, looked up)
chain: B1 chain
modifications: biotin (biotinylated in the host by protein biotin ligase from pBirA)
B3: biotinylated knobΔTAYT protein carrying an N-terminal MRGS(H)6 tag followed by an AviTag (domain or fragment, human adenovirus serotype 5, UniProt P11818 387-581, looked up)
chain: B1 chain
modifications: biotin (biotinylated in the host by protein biotin ligase from pBirA)

Target: the molecule itself
Assay: SEC-MALS + other: SDS-PAGE

| Protein | stoichiometry N |
| --- | --- |
| B1 | 3 |
| B2 | 3 |
| B3 | 3 |
